As a reminder, the Kd is a measure of binding affinity in units of concentration. A lower Kd goes with higher affinity.

For the assay, the target named is CD23的多肽抗原 (synthetic CD23 peptide antigens of SEQ ID NO:1-3). The assay is described as follows: indirect ELISA; peptide antigens of SEQ ID NO:1-3 on the 96-well plate at varied molar concentrations, antibody at 0.125 μg/mL (about 0.83 nmol/L), HRP goat anti-mouse IgG, OD450; value given at a peptide concentration of 0.56 μmol/L. In general terms: An ELISA detects its analyte on a solid surface through an enzyme-linked reagent.

B1: 365A2D1抗CD23单克隆抗体 (anti-CD23 monoclonal antibody secreted by mouse hybridoma cell line 365A2D1) (antibody, V domains shown)
VH: EVQLQESGGGLVQPKGSLKLSCAASGYTFNTYAMHWVRQAPGKGLEWVARIRSKSNNYEPYYADSVKDRFTISRDDSQSILYLQMNNLKTEDTAMYYCVREYYDAMDYWGQGTSVTVSS
VL: EIVMTQAAPSVSVTPGESVSISCRSSQSLLHSNGNTYLYWFLQRPGQSPHLLISRVSNLASGVPDRFSGSGSGTAFTLRISRVEAEDVGVYYCMQGLEFPWTFGGGTKLEIK
On to B1, for which the dissociation constant (Kd) is 700 nM.

These data come from patent CN112646036A.
